Data as given in patent publication EP4810515A1 (Shanghai Haiju Biological Technology Co., Ltd., dated 2026).

T1: cynomolgus monkey GDF15 recombinant protein (Kactus, GDF-CM215) (cynomolgus monkey, UniProt G7PWZ3 197-308, limits assumed)
T1 construct: also called cynoGDF-15.hFc; cynoGDF15; not shown: human Fc (hFc)
T1 sequence (looked up): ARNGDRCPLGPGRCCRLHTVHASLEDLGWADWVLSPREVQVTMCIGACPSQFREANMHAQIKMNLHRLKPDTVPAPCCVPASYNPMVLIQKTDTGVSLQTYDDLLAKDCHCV

T2: mouse GDF15 recombinant protein (Kactus, GDF-MM215) (mouse, UniProt Q9Z0J7 189-303, limits assumed)
T2 construct: also called mGDF-15.hFc; murine GDF15; not shown: human Fc (hFc)
T2 sequence (looked up): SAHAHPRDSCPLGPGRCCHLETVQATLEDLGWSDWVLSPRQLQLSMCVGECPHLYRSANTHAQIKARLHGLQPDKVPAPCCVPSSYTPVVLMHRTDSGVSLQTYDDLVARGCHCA

T3: human GDF15 recombinant protein (ACRO, GD5-H5149) (human, UniProt Q99988 197-308)
T3 construct: also called hGDF-15.His; hGDF15; not shown: His tag
T3 sequence (looked up): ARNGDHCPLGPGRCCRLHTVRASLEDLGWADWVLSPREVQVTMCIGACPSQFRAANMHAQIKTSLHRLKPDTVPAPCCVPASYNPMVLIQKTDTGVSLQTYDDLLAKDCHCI


Assays:
[1] = target: T1, cynomolgus monkey GDF15 recombinant …; assay: ELISA, coated cynoGDF-15.hFc
[2] = target: T2, mouse GDF15 recombinant protein …; assay: ELISA, coated mGDF-15.hFc
[3] = target: T3, human GDF15 recombinant protein (ACRO, …); assay: ELISA, coated hGDF-15.His
[4] = target: T3, human GDF15 recombinant protein (ACRO, …); assay: cell-based or functional assay
[5] = target: T3, human GDF15 recombinant protein (ACRO, …); assay: cell-based or functional assay; remark: listed apart in the source

Binder | EC50 [1] [nM] | EC50 [2] [nM] | EC50 [3] [nM] | IC50, luciferase reporter gene cell strain (mGFRAL/RET HEK293) with hGDF15 [4] [nM] | IC50, reporter gene cell strain (mGFRAL) [5] [µg/mL]
G2-CH12 (antibody, human IgG1, kappa, V domains shown, chimeric: murine variable regions on human IgG1 constant region mutant (LALAGA, -K)) VH: QVQLQQSGAELVKPGASVKLSCKASGYTFTNYDINWVRQRPEQGLEWIGWIFPGDGSTKYNEKFKDKATLTTDTSSSTAYMQLIRLTSEDSAVYFCARILYWGQGTTLTVSS VL: DNKMTQSPSSMYASLGERVTITCKASQDINSYLSWFQQKPGKSPKTLIYRANKLVDGVPSRFSGSGSGQDYSLTISSLEYEDMGIYHCLQYDEFPYTFGGGTKLEIKR | 0.211 | 5.64 | 0.0106 | 6.8 | –
G2-CH8 (antibody, human IgG1, kappa, V domains shown, chimeric: murine variable regions on human IgG1 constant region mutant (LALAGA, -K)) VH: QVTLKESGPGILQPSQTLSLTCSFSGFSLSTYGIGVGWIRQPSGKGLEWLAHIWWNDNKYYNTALKSRLTISKDTSNNQVFLKIASVDTADTATYYCARLAYDYVDSWGQGTTLTVSS VL: DIVMTQAAFSNPVTLGTSASISCRSSKSLLHSNGITYLYWYLQKPGQSPQLLIYQMSNLVSGVPDRFSSSGSGTDFTLRISRVEAEDVGVYYCAQNLELPPTFGAGTKLELKR | 0.0934 | 0.37 | 0.00122 | 3.05 | –
G2-CH2 (antibody, human IgG1, kappa, V domains shown, chimeric: murine variable regions on human IgG1 constant region mutant (LALAGA, -K)) VH: QVTLKESGPGILQPSQTLSLTCSFSGFSLTISGMGVSWIRQPSGKGLEWLAHIYWDDDKRYNPSLKSRLTISKDTSSNQVFLEITSVDTADTATYYCVRAGWDFFDYWGQGTTLTVSS VL: DIVMTQSQKFMSTSVGDRVSVTCKASQNVGTNVAWYQQKPGQSPKGLIYSASYRYSGVPDRFTGSGSGTDFTLTISNVQSEDLAEYFCQQYNSYPWTFGGGTKLEIKR | 0.098 | 0.26 | 0.00627 | 3.24 | –
G2-CH2-LP2-hIgG1 (LALAGA, -K) (antibody, V domains shown) VH: QVTLKESGPGILQPSQTLSLTCSFSGFSLTISGMGVSWIRQPSGKGLEWLAHIYWDDDKRYNPSLKSRLTISKDTSSNQVFLEITSVDTADTATYYCVRAGWDFFDYWGQGTTLTVSS VL: DIVMTQSQKFMSTSVGDRVSVTCKASQNVGTNVAWYQQKPGQSPKGLIYSASYRYSGVPDRFTGSGSGTDFTLTISNVQSEDLAEYFCQQYESYPWTFGGGTKLEIKR | – | – | – | – | 0.091
G2-CH2-LP1-hIgG1 (LALAGA, -K) (antibody, V domains shown) VH: QVTLKESGPGILQPSQTLSLTCSFSGFSLTISGMGVSWIRQPSGKGLEWLAHIYWDDDKRYNPSLKSRLTISKDTSSNQVFLEITSVDTADTATYYCVRAGWDFFDYWGQGTTLTVSS VL: DIVMTQSQKFMSTSVGDRVSVTCKASQNVGTNVAWYQQKPGQSPKGLIYSASYRYSGVPDRFTGSGSGTDFTLTISNVQSEDLAEYFCQQYNAYPWTFGGGTKLEIKR | – | – | – | – | 0.088
G2-CH2-LP3-hIgG1 (LALAGA, -K) (antibody, V domains shown) VH: QVTLKESGPGILQPSQTLSLTCSFSGFSLTISGMGVSWIRQPSGKGLEWLAHIYWDDDKRYNPSLKSRLTISKDTSSNQVFLEITSVDTADTATYYCVRAGWDFFDYWGQGTTLTVSS VL: DIVMTQSQKFMSTSVGDRVSVTCKASQNVGTNVAWYQQKPGQSPKGLIYSASYRYSGVPDRFTGSGSGTDFTLTISNVQSEDLAEYFCQQYNQYPWTFGGGTKLEIKR | – | – | – | – | 0.093
G2-CH3 (antibody, human IgG1, kappa, V domains shown, chimeric: murine variable regions on human IgG1 constant region mutant (LALAGA, -K)) VH: not shown VL: DIVMTQSQKFMSTSVGDRVSVTCKASQNVGTNVAWYQQKPGQSPKGLIYSASYRYSGVPDRFTGSGSGTDFTLTINNVQSEDLAEYFCQQYNSYPYTFGGGTKLEIKR | 0.102 | 56.5 | 0.00453 | 3.55 | –
G2-CH7 (antibody, human IgG1, kappa, V domains shown, chimeric: murine variable regions on human IgG1 constant region mutant (LALAGA, -K)) VH: EVQLQQSGPELVKPGASLKISCKASGYSFTGYNMNWVKQSHGKNLEWIGLINPSNGGSSYSQKFKGKATLTVDKSSSTAYMELLSLTSKDSAVYYCAREVRLGNALDYWGQGTSVTVSS VL: DIQMTQSPASLSVSVGETVTITCRASENIYSNLAWYQQKQGKSPQLLVYAATNLGDGAPSRFSGSGSGTQYSLKINSLQSEDFGSYYCQHFWGTPWTFGGGTKLEIKR | 0.104 | 0.12 | 0.00552 | 3.83 | –
G2-CH9 (antibody, human IgG1, kappa, V domains shown, chimeric: murine variable regions on human IgG1 constant region mutant (LALAGA, -K)) VH: EVQLQQSGPELVKPGASMKISCKASGYSFTGYNMNWVKQSQGKNLEWIGLINPYNGGTIYNQKFKGKATLTVDKSSTTAYMELLSLTSEDSAVYYCAREVRLGNAMDYWGQGTSVTVSS VL: DIQMTQSPASLSVSVGETVTITCRASENIYSNLAWYQQKQGKSPQLLVSAATNLADGVPSRFSGSGSGTQYSLKIISLQSVDFGSYYCQHFWGTPWTFGGGTKLEIKR | 0.097 | 0.11 | 0.00634 | 1.42 | –
G2-CH5-HP1-hIgG1 (LALAGA, -K) (antibody, V domains shown) VH: EVLLQQSGPELVKPGASVKIACKASGYTLTDYNLNWVKQSHGKSLEWIGDLNPYNAGIIYNQKFKGKATLTVDKSSSTAYMELRSLTSEDIAVYYCAREGRGGAWFDSWGQGTLVTVSA VL: DIQMTQSSSSFSVSLGDRVTITCKASEDIYHRLAWYQQKPGNAPRLLISGATSLETGIPSRFSGSGSGKDYALSITSLQTEDVGTYYCQQYWSPPFTFGSGTKLEIKR | – | – | – | – | 0.18
G2-CH5 (antibody, human IgG1, kappa, V domains shown, chimeric: murine variable regions on human IgG1 constant region mutant (LALAGA, -K)) VH: EVLLQQSGPELVKPGASVKIACKASGYTLTDYNLNWVKQSHGKSLEWIGDLNPYNGGIIYNQKFKGKATLTVDKSSSTAYMELRSLTSEDIAVYYCAREGRGGAWFDSWGQGTLVTVSA VL: DIQMTQSSSSFSVSLGDRVTITCKASEDIYHRLAWYQQKPGNAPRLLISGATSLETGIPSRFSGSGSGKDYALSITSLQTEDVGTYYCQQYWSPPFTFGSGTKLEIKR | 0.0929 | 0.12 | 0.00394 | 3.45 | –

The remaining lines, values ahead:

EC50 [1] [nM] | EC50 [2] [nM] | EC50 [3] [nM] | IC50, luciferase reporter gene cell strain (mGFRAL/RET HEK293) with hGDF15 [4] [nM] | IC50, reporter gene cell strain (mGFRAL) [5] [µg/mL] | Binder
0.086 | 0.17 | 0.00387 | 3.75 | – | G2-CH1 (antibody, human IgG1, kappa, V domains shown, chimeric: murine variable regions on human IgG1 constant region mutant (LALAGA, -K)) VH: QVTLKESGPGILQPSQTLSLTCSFSGFSLSTYGIGVGWIRQPSGKGLEWLAHIWWNNNKYFNTALKSRLTISKDTSNNQVFLKIASVDTADSATYYCARMGYDIMDYWGQGTSVTVSS VL: DIVMTQSHKFMSTSVGDRVSITCKASQDVNTAVAWYQQKPGQSPKFLIYSSSYRYTGVPDRFTGSGSGTDFTFTISSVQAEDLAVYYCQQHYSTPWTFGGGTKLEIKR
0.0654 | 0.22 | 0.00382 | 11.7 | – | G2-CH13 (antibody, human IgG1, kappa, V domains shown, chimeric: murine variable regions on human IgG1 constant region mutant (LALAGA, -K)) VH: EVLLQQSGPELVKPGASVKITCKASGYTFTDYNMNWVKQSHGKSLEWIGDINPYNGGIIYNQKFRGKATLTIDKSSSTAYMELRSLTSEDTAVYYCAREVRRGSFFDYWGQGTTLTVSS VL: DIQMTQSPASLSVSVGETVTITCRASENIYSNLAWYQQKQGKSPQLLVYAATDLADGVPSRFSGSGSGTQYSLKINSLQSEDFGNYHCQLFWGTPTFGGGTKLEIKR
0.0909 | 0.32 | 0.00476 | 0.45 | – | G2-CH16 (antibody, human IgG1, kappa, V domains shown, chimeric: murine variable regions on human IgG1 constant region mutant (LALAGA, -K)) VH: not shown VL: DIVMTQSQKFMSTSVGDRVSVTCKASQNVGTNIAWFQQKPGQSPEALIYSASYRYSGVPDRFTGSGSGTDFTLTISNVQSEDLAEYFCQQYNTYPHTFGGGTKLEIRR
0.0892 | 0.11 | 0.00434 | 4.39 | – | G2-CH6 (antibody, human IgG1, kappa, V domains shown, chimeric: murine variable regions on human IgG1 constant region mutant (LALAGA, -K)) VH: EVQLRQSGPELVKPGTSMKISCKASAYSFTDYNMNWVKQSHGKNLEWIGLINPYNGGTRYNQNFKGKATITVDRSSTTAYMELLSLTSEDSAIYYCAREVRLGNALDYWGQGTSVTVSS VL: DIQMTQSPASLSVSVGETVTITCRPSESIYSNLAWYQQKQGKSPQLLVYAATNLADGVPSRFSGSGSGTQYSLKINSLQSEDFGTYYCQHFWGIPWTFGGGTKLEIKR
0.0721 | 0.76 | 0.00663 | 0.2 | – | G2-CH14 (antibody, human IgG1, kappa, V domains shown, chimeric: murine variable regions on human IgG1 constant region mutant (LALAGA, -K)) VH: QVTLKESGPGILQPSQTLSLTCSFSGFSLSTSGMGVSWIRQPSGKGLEWLALIYWDDDKRYNPSLKSRLTISKDASSNQVFLKITSVDTADTATYYCIQSPWDWFAYWGQGTLVTVSA VL: EIVLTQSPALMAASPGEKVTITCSVSSSISSSNLHWYQQKSETSPKPWIYGTSNLASGVPVRFSGSGSGTSYSLTISSMEAEDAATYYCQQWSSYPLTFGAGTKLELKR
0.0841 | 0.25 | 0.00592 | 3.4 | – | G2-CH10 (antibody, human IgG1, kappa, V domains shown, chimeric: murine variable regions on human IgG1 constant region mutant (LALAGA, -K)) VH: not shown VL: DIQMTQTTSSLSASLGDRVTISCRASQDISNYLNWYQQKPDGTVKLLIHSASNLHSGVPSRFSGSGSGTDYSLTISNLEQEDIATYFCQQYNMFPWTFGGGTKLEIKR
